Experimental data: PMC3953565 (Methods in molecular biology (Clifton, N.J.), 2009)

Molecular target: the molecule itself
Test: AUC

B1: recombinant human mitochondrial single-stranded DNA binding protein, mature form (natural protein, UniProt Q04837 17-148, looked up)
chain: ESETTTSLVLERSLNRVHLLGRVGQDPVLRQVEGKNPVTIFSLATNEMWRSGDSEVYQLGDVSQKTTWHRISVFRPGLRDVAYQYVKKGSRIYLEGKIDYGEYMDKNNVRRQATTIIADNIIFLSDQTKEKE
stoichiometry N: 4
